Data set [1] deals with SufA (E. coli) (UniProt P77667). The data set can be described thus: SPR.
Data set [2] deals with T1, (His)6-SufS (E. coli, UniProt P77444 1-406).
T1 sequence (looked up): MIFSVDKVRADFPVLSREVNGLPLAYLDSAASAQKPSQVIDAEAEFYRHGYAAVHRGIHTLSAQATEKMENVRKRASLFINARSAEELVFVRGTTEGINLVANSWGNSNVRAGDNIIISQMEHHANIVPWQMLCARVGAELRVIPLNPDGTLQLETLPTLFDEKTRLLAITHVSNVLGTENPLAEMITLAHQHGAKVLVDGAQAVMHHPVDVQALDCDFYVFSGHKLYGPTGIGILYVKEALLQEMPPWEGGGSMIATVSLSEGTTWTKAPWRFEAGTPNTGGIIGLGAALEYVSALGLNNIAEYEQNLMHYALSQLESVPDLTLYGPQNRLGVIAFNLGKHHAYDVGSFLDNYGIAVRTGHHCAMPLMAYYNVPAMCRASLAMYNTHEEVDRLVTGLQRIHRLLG
The data set can be described thus: SPR. (In general: In SPR one partner is held on a chip, and binding of the other changes the refractive index at the surface.)

In data set [3] the target is T2, SufC (E. coli, UniProt P77499 1-248).
T2 sequence (looked up): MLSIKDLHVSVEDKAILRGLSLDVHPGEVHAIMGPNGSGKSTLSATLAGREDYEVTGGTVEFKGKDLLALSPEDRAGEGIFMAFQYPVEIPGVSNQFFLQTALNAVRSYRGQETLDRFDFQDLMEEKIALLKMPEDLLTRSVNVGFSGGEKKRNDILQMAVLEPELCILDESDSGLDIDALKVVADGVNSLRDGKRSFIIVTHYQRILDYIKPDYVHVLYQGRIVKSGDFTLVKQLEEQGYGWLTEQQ
Kind of data set: cross-linking.

Data set [4] concerns the target T3, SufB (E. coli, UniProt P77522 1-495).
T3 sequence (looked up): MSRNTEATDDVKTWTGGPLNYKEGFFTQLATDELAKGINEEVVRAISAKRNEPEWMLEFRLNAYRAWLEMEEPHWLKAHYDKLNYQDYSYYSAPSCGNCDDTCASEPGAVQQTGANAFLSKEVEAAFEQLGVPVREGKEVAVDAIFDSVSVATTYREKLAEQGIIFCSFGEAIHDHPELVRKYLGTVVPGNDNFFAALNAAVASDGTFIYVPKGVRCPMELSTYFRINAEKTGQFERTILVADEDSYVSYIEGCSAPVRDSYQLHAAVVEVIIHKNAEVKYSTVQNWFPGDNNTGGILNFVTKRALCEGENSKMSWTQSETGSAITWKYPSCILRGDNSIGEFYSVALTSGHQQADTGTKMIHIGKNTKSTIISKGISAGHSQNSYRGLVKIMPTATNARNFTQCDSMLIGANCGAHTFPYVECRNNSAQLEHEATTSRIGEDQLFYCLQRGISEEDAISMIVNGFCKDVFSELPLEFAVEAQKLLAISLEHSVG
The data set can be described thus: cross-linking.

Data set [5] concerns the molecule itself. Kind of data set: SEC. (SEC sorts molecules by how far they enter the pores of the column.)

The values below come from PMC2783425 (Biochemistry, 2009).

Usually Kd stands for the free concentration of one partner at which half of the binding sites on the other are occupied at equilibrium, for simple one-to-one binding. Low readings indicate higher affinity, high ones lower affinity. On to “(His)6-SufS (from UniProt P77444 1-406) (enzyme)”, for which the Kd in data set [1] worked out at 1400 nM.

B1: SufE (natural protein, E. coli, UniProt P76194 1-138, looked up)
chain: MALLPDKEKLLRNFLRCANWEEKYLYIIELGQRLPELRDEDRSPQNSIQGCQSQVWIVMRQNAQGIIELQGDSDAAIVKGLIAVVFILYDQMTPQDIVNFDVRPWFEKMALTQHLTPSRSQGLEAMIRAIRAKAAALS
Regarding B1, in data set [2], the affinity, expressed as Kd, was 1.1 nM.

B2: SufA pre-labeled with Mts-Atf-Biotin (natural protein, E. coli, UniProt P77667 1-122, looked up)
chain: MDMHSGTFNPQDFAWQGLTLTPAAAIHIRELVAKQPGMVGVRLGVKQTGCAGFGYVLDSVSEPDKDDLLFEHDGAKLFVPLQAMPFIDGTEVDFVREGLNQIFKFHNPKAQNECGCGESFGV
modifications: Mts-Atf-biotin on cysteine residues (reducible disulfide bonds)
Turning to B2, the binding result in data set [3] and in data set [4] was “binds” throughout.

B3: SufA (natural protein, E. coli, UniProt P77667 1-122, looked up)
chain: B2 chain
Broadly, the stoichiometry N is a count of units in the complex or per binding partner. Regarding B3, in data set [5], the “stoichiometry N” value is 2.
